Reference: publication PMC8861134

How the values were obtained:
[1] = biological target: Glucose-6-phosphate dehydrogenase E347A, tetramer-impaired synthetic mutant (human) (UniProt P11413); test: native gel or EMSA; partial native PAGE (P-Native PAGE): 850 nM protein in 50 mM Tris pH 7.4, 150 mM NaCl, 23 °C, 30 min; sample buffer without SDS and BME, not boiled, run on SDS-PAGE, Western blot, quantified with Fiji; step: dimer to monomers
[2] = biological target: Glucose-6-phosphate dehydrogenase K403Q (human) (UniProt P11413); test: SEC; analytical SEC, Superdex 75 10/300 GL, 0.4 ml/min; 500 nM G6PD incubated 30 min at 23 °C in 80 mM sodium phosphate pH 8.0, with or without 10 μM NADP+; percentages in monomer equivalents; step: monomers to dimer

Row | percent in monomeric form [1] [%] | percent dimer [2] [%] | Substance
1 | 80 | – | Glucose-6-phosphate dehydrogenase E347A, tetramer-impaired synthetic mutant (from UniProt P11413 1-515) (enzyme)
2 | – | 74 | Glucose-6-phosphate dehydrogenase K403Q (from UniProt P11413 1-515) (enzyme)
